Reference: patent US20220267444A1 (CTTQ AKESO SHANGHAI BIOMED TECH, published 2022)

T1: Fc receptor FcγRIIa_H131 (UniProt P12318 34-218, limits assumed)
T1 sequence (looked up): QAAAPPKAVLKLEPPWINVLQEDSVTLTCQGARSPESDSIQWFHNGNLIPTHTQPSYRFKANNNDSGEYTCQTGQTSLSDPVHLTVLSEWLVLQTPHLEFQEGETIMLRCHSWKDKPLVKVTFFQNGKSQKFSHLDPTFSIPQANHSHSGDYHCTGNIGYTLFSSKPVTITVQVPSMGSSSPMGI

T2: Fc receptor FcγRIIb (human, UniProt P31994 43-217)
T2 construct: also called CD32b; hFcγRIIb-his; not shown: his tag named in 'hFcγRIIb-his'
T2 sequence (looked up): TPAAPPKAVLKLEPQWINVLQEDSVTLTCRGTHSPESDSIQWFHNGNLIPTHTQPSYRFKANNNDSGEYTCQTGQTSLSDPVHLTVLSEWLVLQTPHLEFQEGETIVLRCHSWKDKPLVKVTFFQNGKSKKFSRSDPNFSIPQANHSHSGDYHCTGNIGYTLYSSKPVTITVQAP

T3: Fc receptor FcγRIIa_R131 (UniProt P12318 34-218, limits assumed)
T3 sequence (looked up): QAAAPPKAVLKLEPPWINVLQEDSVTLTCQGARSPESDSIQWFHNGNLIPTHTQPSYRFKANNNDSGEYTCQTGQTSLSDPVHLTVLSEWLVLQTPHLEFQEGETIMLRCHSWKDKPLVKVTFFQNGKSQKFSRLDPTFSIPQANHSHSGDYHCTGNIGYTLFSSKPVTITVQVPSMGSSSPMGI


Legend:
[1] = biological target: T4, Fc receptor FcγRIIIa_F158 (UniProt P08637 17-208); test: BLI (Fortebio Octet), FcγRIIIa_F158 immobilised on HIS1K sensor, antibody in solution at 31.25-500 nM
Description: (§1) 5 μg/mL FcγRIIIa_F158 was immobilized on the HIS1K sensor for 120 s. The sensor was equilibrated in a buffer for 60 s, and the binding of the immobilized FcγRIIIa_F158 on the sensor to the antibodies at concentrations of 31.25-500 nM (serial two-fold dilution) was determined for 60 s. The antibody was dissociated in the buffer for 60 s. The sensor was refreshed 4 times in 10 mM glycine pH 1.5, each for 5 s. The temperature was 30° C. and the frequency was 0.3 Hz. The data were analyzed by 1:1 model fitting to obtain affinity constants.

Fc receptor FcγRIIa_H131 [2] = biological target: T1, Fc receptor FcγRIIa_H131; test: BLI (Fortebio Octet), FcγRIIa_H131 immobilised on NTA sensor, antibody in solution at 12.5-200 nM
Description: (§2) 5 μg/mL FcγRIIa_H131 was immobilized on the NTA sensor at an immobilization height of about 1.0 nm. The sensor was equilibrated in a buffer of 0.02% Tween-20, 0.02% casein and 0.1% BSA in PBS, pH 7.4 for 300 s of blocking, and the binding of the immobilized FcγRIIa_H131 on the sensor to the antibodies at concentrations of 12.5-200 nM (serial two-fold dilution) was determined for 60 s. The antibody was dissociated in the buffer for 60 s. The sensor was refreshed in 10 mM glycine pH 1.7 and […] nickel sulfate. The temperature was 30° C. and the frequency was 0.6 Hz. The data were analyzed by 1:1 model fitting to obtain affinity constants.

Fc receptor FcγRIIb [3] = biological target: T2, Fc receptor FcγRIIb; test: BLI (Fortebio Octet), hFcγRIIb-his immobilised on NTA sensor, antibody in solution at 12.5-200 nM
Description: as §2, with “hFcγRIIb-his” for “FcγRIIa_H131”

Fc receptor FcγRIIa_R131 = biological target: T3, Fc receptor FcγRIIa_R131; test: BLI (Fortebio Octet); FcγRIIa_R131 on NTA sensor, antibody 12.5-200 nM; 1:1 fit
Description: as §2, with “FcγRIIa_R131” for “FcγRIIa_H131”

Fc receptor FcγRI [4] = biological target: T5, Fc receptor FcγRI (UniProt P12314 16-288); test: BLI (Fortebio Octet), FcγRI immobilised on HIS1K sensor, antibody in solution at 3.12-50 nM
T5 construct: also called CD64
Description: (§3) The Fc receptor FcγRI, also known as CD64, can bind to the Fc fragment of IgG antibodies and is involved in antibody-dependent cell-mediated cytotoxicity (ADCC). The binding capacity of a therapeutic monoclonal antibody to Fc receptors will influence the safety and efficacy of the antibody. […] A 1 μg/mL FcγRI solution (from Sinobio) was added to the HIS1K sensor to immobilize the FcγRI on the sensor surface for 50 s. The association and dissociation constants of the antibodies to FcγRI were both determined in the buffer with the antibody concentrations being 3.12-50 nM (serial two-fold dilution). The sensor with immobilized antigen was equilibrated in the buffer for 60 s, and then the binding of the immobilized FcγRI on the sensor to the antibodies was determined for 120 s; the dissociation of FcγRI from the antibodies was determined in 120 s. The temperature was 30° C. and the frequency was 0.3 Hz. The data were fitted and analyzed with a 1:1 model to obtain the affinity constants to FcγRI for the antibodies.

Serum complement C1q [5] = biological target: T6, Serum complement C1q (UniProt P02745 23-245; P02746 28-253; P02747 29-245); test: BLI (Fortebio Octet), antibody immobilised on FAB2G sensor, C1q in solution at 1.25-20 nM
Description: (§4) 50 μg/mL antibody was immobilized on the FAB2G sensor at an immobilization height of about 2.0 nm. The sensor was equilibrated in a buffer for 60 s for blocking, and the binding of the immobilized antibody on the sensor to the antigen C1q at concentrations of 1.25-20 nM (serial two-fold dilution) was determined for 60 s. The antigen and antibody were dissociated in the buffer for 60 s. The sensor was refreshed 4 times in 10 mM glycine pH 1.7, each for 5 s. The shaking speed of the sample plate was 1000 rpm, the temperature was 30° C. and the frequency was 0.6 Hz. The data were analyzed by 1:1 model fitting to obtain affinity constants. The data acquisition software was Fortebio Data Acquisition 7.0, and the data analysis software was Fortebio Data Analysis 7.0.

[6] = biological target: T7, Fc receptor FcγRIIIa_V158 (UniProt P08637 17-208); test: BLI (Fortebio Octet), FcγRIIIa_V158 immobilised on HIS1K sensor, antibody in solution at 31.25-500 nM
Description: as §1, with “FcγRIIIa_V158” for “FcγRIIIa_F158”

Fc receptor FcγRIIa_H131 [7] = biological target: T1, Fc receptor FcγRIIa_H131; test: BLI (Fortebio Octet); FcγRIIa_H131 on NTA sensor, antibody 12.5-200 nM; 1:1 fit
Description: as §2

Fc receptor FcγRI [8] = biological target: T5, Fc receptor FcγRI; test: BLI (Fortebio Octet); FcγRI on HIS1K sensor, antibody 3.12-50 nM; 1:1 fit
Description: as §3

Fc receptor FcγRIIb [9] = biological target: T2, Fc receptor FcγRIIb; test: BLI (Fortebio Octet); hFcγRIIb-his on NTA sensor, antibody 12.5-200 nM; 1:1 fit
Description: as §2, with “hFcγRIIb-his” for “FcγRIIa_H131”

Serum complement C1q [10] = biological target: T6, Serum complement C1q; test: BLI (Fortebio Octet); antibody on FAB2G sensor, C1q 1.25-20 nM; 1:1 fit
Description: as §4

[11] = biological target: T4, Fc receptor FcγRIIIa_F158; test: BLI (Fortebio Octet); FcγRIIIa_F158 on HIS1K sensor, antibody 31.25-500 nM; 1:1 fit
Description: as §1

[12] = biological target: T7, Fc receptor FcγRIIIa_V158; test: BLI (Fortebio Octet); FcγRIIIa_V158 on HIS1K sensor, antibody 31.25-500 nM; 1:1 fit
Description: as §1, with “FcγRIIIa_V158” for “FcγRIIIa_F158”

T4 sequence (P08637 17-208 limits assumed): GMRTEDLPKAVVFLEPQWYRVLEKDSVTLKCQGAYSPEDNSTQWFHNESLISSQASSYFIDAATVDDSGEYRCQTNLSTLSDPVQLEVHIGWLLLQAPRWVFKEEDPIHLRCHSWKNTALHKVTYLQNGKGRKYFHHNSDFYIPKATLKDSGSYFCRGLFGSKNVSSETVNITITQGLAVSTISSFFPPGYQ
T7 sequence (P08637 17-208 F176V limits assumed): as the sequence (P08637 17-208 limits assumed) above, with F160V counted along it
T6 sequence (P02745 23-245 limits assumed, chain 1 of 3): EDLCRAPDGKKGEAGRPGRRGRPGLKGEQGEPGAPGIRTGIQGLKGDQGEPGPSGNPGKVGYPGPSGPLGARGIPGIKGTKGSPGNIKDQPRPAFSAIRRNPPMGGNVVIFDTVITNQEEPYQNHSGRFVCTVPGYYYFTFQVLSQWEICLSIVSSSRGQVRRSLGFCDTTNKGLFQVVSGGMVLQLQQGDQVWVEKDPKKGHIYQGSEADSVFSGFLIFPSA
T6 sequence (P02746 28-253 limits assumed, chain 2 of 3): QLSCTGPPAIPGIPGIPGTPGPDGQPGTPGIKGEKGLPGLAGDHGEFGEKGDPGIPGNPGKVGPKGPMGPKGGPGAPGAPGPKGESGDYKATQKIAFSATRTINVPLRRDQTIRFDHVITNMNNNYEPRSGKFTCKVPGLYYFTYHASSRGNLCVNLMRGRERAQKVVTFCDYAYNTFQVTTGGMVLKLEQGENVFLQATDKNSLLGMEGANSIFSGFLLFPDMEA
T6 sequence (P02747 29-245 limits assumed, chain 3 of 3): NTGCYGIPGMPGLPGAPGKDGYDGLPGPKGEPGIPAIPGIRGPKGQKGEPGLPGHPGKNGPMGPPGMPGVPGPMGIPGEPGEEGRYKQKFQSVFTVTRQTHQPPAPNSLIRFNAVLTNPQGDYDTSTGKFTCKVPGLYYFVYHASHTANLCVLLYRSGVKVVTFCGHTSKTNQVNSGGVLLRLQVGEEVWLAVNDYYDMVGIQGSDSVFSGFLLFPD
T5 sequence (P12314 16-288 limits assumed): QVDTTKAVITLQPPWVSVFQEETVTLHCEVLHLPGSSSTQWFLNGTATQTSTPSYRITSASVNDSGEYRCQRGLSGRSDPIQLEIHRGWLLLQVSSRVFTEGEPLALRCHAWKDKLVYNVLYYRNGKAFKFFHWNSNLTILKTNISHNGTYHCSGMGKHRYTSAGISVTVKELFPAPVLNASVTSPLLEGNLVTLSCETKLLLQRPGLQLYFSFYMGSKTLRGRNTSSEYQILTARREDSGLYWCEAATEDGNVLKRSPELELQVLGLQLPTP

binding result [1] | Kd (Fc receptor FcγRIIa_R131) | koff (Fc receptor FcγRIIa_R131) | kon (Fc receptor FcγRIIa_R131) | binding result (Serum complement C1q [5]) | Kd (Fc receptor FcγRIIa_H131 [7]) | koff (Fc receptor FcγRIIa_H131 [7]) | kon (Fc receptor FcγRIIa_H131 [7]) | Kd (Fc receptor FcγRI [8]) | koff (Fc receptor FcγRI [8]) | kon (Fc receptor FcγRI [8]) | Kd (Fc receptor FcγRIIb [9]) | koff (Fc receptor FcγRIIb [9]) | kon (Fc receptor FcγRIIb [9]) | Kd (Serum complement C1q [10]) | koff (Serum complement C1q [10]) | kon (Serum complement C1q [10]) | Binder | further results
no binding (tested: 500 nM) | 232 nM | 0.0938 s⁻¹ | 404000 M⁻¹ s⁻¹ | no binding (tested: 20 nM) |  |  |  |  |  |  |  |  |  |  |  |  | 14C12H1L1(hG1TM) (antibody, human IgG1, kappa, Humanized anti-PD-1 IgG1 mutant of 14C12H1L1(hG1WT) with L234A, L235A and G237A (EU numbering) in the heavy chain) heavy: not shown light: DIQMTQSPSSMSASVGDRVTFTCRASQDINTYLSWFQQKPGKSPKTLIYRANRLVSGVPSRFSGSGSGQDYTLTISSLQPEDMATYYCLQYDEFPLTFGAGTKLELKRTVAAPSVFIFPPSDEQLKSGTASVVCLLNNFYPREAKVQWKVDNALQSGNSQESVTEQDSKDSTYSLSSTLTLSKADYEKHKVYACEVTHQGLSSPVTKSFNRGEC | binding result (Fc receptor FcγRIIa_H131 [2]): no binding (tested: 200 nM); binding result (Fc receptor FcγRIIb [3]): no binding (tested: 200 nM); binding result (Fc receptor FcγRI [4]): no binding (tested: 50 nM); binding result [6]: no binding (tested: 500 nM)
no binding (tested: 500 nM) | 31.3 nM | 0.011 s⁻¹ | 350000 M⁻¹ s⁻¹ | no binding (tested: 20 nM) | 50.7 nM | 0.013 s⁻¹ | 257000 M⁻¹ s⁻¹ | 5.8 nM | 0.00369 s⁻¹ | 637000 M⁻¹ s⁻¹ | 56.2 nM | 0.0162 s⁻¹ | 288000 M⁻¹ s⁻¹ |  |  |  | 14C12H1L1(hG4) (antibody, human IgG4 S228P, kappa, Humanized anti-PD-1 antibody with the variable regions of 14C12H1L1(hG1WT), Ig gamma-4 chain C region (P01861.1) and Ig kappa chain C region (P01834)) heavy: not shown light: DIQMTQSPSSMSASVGDRVTFTCRASQDINTYLSWFQQKPGKSPKTLIYRANRLVSGVPSRFSGSGSGQDYTLTISSLQPEDMATYYCLQYDEFPLTFGAGTKLELKRTVAAPSVFIFPPSDEQLKSGTASVVCLLNNFYPREAKVQWKVDNALQSGNSQESVTEQDSKDSTYSLSSTLTLSKADYEKHKVYACEVTHQGLSSPVTKSFNRGEC | 
 | 34.6 nM | 0.0228 s⁻¹ | 660000 M⁻¹ s⁻¹ |  | 57.4 nM | 0.0267 s⁻¹ | 465000 M⁻¹ s⁻¹ | 2.52 nM | 0.00175 s⁻¹ | 694000 M⁻¹ s⁻¹ | 61.3 nM | 0.0195 s⁻¹ | 318000 M⁻¹ s⁻¹ | 1.35 nM | 0.00654 s⁻¹ | 4.83e+06 M⁻¹ s⁻¹ | 14C12H1L1(hG1WT) (antibody, human IgG1, kappa, Humanized anti-PD-1 antibody, wild-type human IgG1 constant region) heavy: not shown light: DIQMTQSPSSMSASVGDRVTFTCRASQDINTYLSWFQQKPGKSPKTLIYRANRLVSGVPSRFSGSGSGQDYTLTISSLQPEDMATYYCLQYDEFPLTFGAGTKLELKRTVAAPSVFIFPPSDEQLKSGTASVVCLLNNFYPREAKVQWKVDNALQSGNSQESVTEQDSKDSTYSLSSTLTLSKADYEKHKVYACEVTHQGLSSPVTKSFNRGEC | Kd [11]: 102 nM; koff [11]: 0.0256 s⁻¹; kon [11]: 252000 M⁻¹ s⁻¹; Kd [12]: 65.4 nM; koff [12]: 0.0171 s⁻¹; kon [12]: 261000 M⁻¹ s⁻¹
 |  |  |  |  |  |  |  |  |  |  |  |  |  | 4.43 nM | 0.0105 s⁻¹ | 2.38e+06 M⁻¹ s⁻¹ | 5C10H2L2-IgG1mt (antibody) chain 1: not shown chain 2: EIVLTQSPDTLSVTPKEKVTLTCRASQSIGTNIHWFQQKPGQSPKLLIKYASESISGVPSRFSGSGSGTDFTLTINSVEAEDAATYYCQQSNSWPYTFGQGTKLEIKRTVAAPSVFIFPPSDEQLKSGTASVVCLLNNFYPREAKVQWKVDNALQSGNSQESVTEQDSKDSTYSLSSTLTLSKADYEKHKVYACEVTHQGLSSPVTKSFNRGEC | 
